1 molecule from PMC3696906 can be followed below.

Broadly, the Kd is the concentration at which binding is half-saturated.

One data set addresses T1, murine CD28-Fc (mouse, UniProt P31041 20-150).
T1 sequence: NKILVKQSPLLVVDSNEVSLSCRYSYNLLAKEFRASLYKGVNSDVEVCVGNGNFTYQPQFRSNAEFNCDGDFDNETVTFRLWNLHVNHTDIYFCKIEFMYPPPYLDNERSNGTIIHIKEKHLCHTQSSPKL
The experiment in a line: filter binding.

The target in another data set is human CD28-Fc (human, UniProt P10747 19-152). Description: filter binding?

human CD28-Fc, sequence (P10747 19-152): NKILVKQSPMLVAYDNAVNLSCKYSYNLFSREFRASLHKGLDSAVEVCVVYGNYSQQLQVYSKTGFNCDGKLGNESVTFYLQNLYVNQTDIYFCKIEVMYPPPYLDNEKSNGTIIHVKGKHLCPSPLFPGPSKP

B1: CD28Apt7 (monomer) (structured_RNA)
RNA: GGGAGAGAGGAAGAGGGAUGGGGAUUAGACCAUAGGCUCCCAACCCCCAUAACCCAGAGGUCGAUAGUACUGGAUCCCCCC
modifications: 2'-fluoropyrimidine (2'-F C and U)
Regarding B1, binding in the data set with murine CD28-Fc was put at a Kd of 60 nM. In the data set with human CD28-Fc, the binding result was “no binding”.
